Data taken from patent US20230287348A1.

Tests used:
[1] = biological target: CD123 antigen on AML cells (THP-1 cell line, primary AML blasts) (human) (UniProt P26951); test: cell-based or functional assay
[2] = biological target: CD19 antigen on ALL cells (REH cell line, primary ALL blasts) (human) (UniProt P15391); test: cell-based or functional assay
Sequence of UniProt P15391 (P15391 20-556): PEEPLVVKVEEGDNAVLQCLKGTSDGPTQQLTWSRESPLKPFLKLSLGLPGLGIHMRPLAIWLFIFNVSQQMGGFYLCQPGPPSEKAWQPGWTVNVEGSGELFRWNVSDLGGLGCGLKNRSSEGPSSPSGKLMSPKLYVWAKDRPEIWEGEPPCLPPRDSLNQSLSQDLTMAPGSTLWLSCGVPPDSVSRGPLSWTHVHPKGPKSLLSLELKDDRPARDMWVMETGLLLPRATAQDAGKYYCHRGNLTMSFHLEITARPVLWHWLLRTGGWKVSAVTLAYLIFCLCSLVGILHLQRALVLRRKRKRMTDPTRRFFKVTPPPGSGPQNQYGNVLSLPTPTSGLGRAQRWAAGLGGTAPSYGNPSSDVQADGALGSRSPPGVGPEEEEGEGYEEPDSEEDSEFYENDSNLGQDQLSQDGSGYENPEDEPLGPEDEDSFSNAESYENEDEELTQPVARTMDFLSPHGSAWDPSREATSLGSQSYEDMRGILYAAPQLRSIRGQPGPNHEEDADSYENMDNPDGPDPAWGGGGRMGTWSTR

Sequence of UniProt P26951 (P26951 19-378): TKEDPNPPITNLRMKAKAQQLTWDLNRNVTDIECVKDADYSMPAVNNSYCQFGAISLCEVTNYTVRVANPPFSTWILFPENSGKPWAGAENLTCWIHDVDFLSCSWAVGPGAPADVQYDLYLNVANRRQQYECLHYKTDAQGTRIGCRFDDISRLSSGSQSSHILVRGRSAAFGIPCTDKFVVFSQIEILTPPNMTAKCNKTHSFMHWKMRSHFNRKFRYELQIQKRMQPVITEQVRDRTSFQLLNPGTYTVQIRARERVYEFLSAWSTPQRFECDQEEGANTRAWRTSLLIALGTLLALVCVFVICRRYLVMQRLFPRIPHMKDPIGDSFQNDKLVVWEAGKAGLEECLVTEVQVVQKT

Substance: CD123·CAR (anti-CD123 chimeric antigen receptor: scFv from mAb 7G3 in frame with CH2CH3-CD28-OX40-ζ), expressed on CIK cells (from UniProt P10747 153-220; P43489 242-277; P20963 52-163)
- lysis of AML primary blasts by CD123·CAR+ CIK cell populations (cytotoxic assay) [1]: 60%
- lysis of THP-1 AML cell line by CD123·CAR+ CIK cell populations (cytotoxic assay) [1]: 85%

Substance: CD19·CAR (anti-CD19 chimeric antigen receptor: VL and VH of clone FMC63 in frame with CH2CH3-CD28-OX40-ζ), expressed on CIK cells (from UniProt P10747 153-220; P43489 242-277; P20963 52-163)
- lysis of ALL primary blasts by CD19·CAR+ CIK cell populations (cytotoxic assay) [2]: 56.8%
- lysis of REH ALL cell line by CD19·CAR+ CIK cell populations (cytotoxic assay) [2]: 80%
